In series [1] the target is T1, daf-12 (F11A1.3) (Caenorhabditis elegans) (UniProt G5EFF5).
T1 sequence: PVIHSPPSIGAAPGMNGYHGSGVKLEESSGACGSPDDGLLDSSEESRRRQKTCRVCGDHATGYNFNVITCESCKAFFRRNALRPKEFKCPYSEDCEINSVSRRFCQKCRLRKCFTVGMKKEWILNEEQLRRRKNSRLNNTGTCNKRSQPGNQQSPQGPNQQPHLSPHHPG

In series [2] the target is T2, nhr-1 (R09G11.2) (Caenorhabditis elegans) (UniProt Q21878).
T2 sequence: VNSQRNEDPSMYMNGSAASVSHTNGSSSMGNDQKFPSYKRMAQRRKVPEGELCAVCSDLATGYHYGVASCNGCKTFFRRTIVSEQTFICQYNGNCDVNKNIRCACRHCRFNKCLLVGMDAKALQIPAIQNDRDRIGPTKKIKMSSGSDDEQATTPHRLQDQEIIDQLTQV

Series [3] concerns the target T3, nhr-3 (H01A20.1) (Caenorhabditis elegans) (UniProt Q9XTJ4).
T3 sequence: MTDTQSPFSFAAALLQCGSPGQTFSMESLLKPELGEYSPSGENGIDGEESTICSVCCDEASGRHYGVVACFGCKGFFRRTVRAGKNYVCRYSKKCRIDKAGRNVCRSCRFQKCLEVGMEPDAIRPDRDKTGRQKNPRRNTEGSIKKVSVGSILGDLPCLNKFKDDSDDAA

For series [4], the target named is T4, nhr-204 (R02C2.4) (Caenorhabditis elegans) (UniProt O44543).
T4 sequence: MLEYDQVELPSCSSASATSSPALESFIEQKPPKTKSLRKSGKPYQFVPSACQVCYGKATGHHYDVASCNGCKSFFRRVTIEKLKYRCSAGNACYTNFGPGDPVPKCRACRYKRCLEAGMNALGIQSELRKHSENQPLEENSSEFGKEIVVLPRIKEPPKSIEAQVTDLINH

Series [5] addresses T5, nhr-46 (C45E5.6) (Caenorhabditis elegans) (UniProt Q95QR2).
T5 sequence: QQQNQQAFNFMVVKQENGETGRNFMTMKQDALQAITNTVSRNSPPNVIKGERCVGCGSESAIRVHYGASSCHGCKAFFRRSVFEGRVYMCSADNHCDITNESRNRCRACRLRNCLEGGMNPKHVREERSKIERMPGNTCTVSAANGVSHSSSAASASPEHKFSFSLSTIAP

In series [6] the target is T6, atf-5 (T04C10.4) (Caenorhabditis elegans) (UniProt Q22156).
T6 sequence: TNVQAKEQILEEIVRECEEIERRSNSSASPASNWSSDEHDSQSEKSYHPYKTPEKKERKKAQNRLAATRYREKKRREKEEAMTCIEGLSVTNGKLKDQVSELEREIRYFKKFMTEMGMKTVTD

For series [7], the target named is atf-7 (C07G2.2) (Caenorhabditis elegans) (UniProt Q86MD3).
Series [8] deals with T7, ceh-34 (C10G8.6) (Caenorhabditis elegans) (UniProt Q94165).
T7 sequence: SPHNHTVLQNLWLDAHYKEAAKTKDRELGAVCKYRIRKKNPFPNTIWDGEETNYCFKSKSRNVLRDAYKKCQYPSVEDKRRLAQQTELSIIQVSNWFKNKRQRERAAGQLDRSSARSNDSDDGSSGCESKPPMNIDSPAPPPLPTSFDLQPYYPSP

Series [9] concerns the target T8, end-1 (F58E10.2) (Caenorhabditis elegans) (UniProt G5EDN4).
T8 sequence: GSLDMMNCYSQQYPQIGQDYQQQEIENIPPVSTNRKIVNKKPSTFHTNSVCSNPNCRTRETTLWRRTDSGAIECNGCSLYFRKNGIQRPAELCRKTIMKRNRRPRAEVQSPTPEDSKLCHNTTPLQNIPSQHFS

For series [10], the target named is nhr-34 (F58G6.5) (Caenorhabditis elegans) (UniProt Q21006).
For series [11], the target named is T9, atf-6 (F45E6.2) (Caenorhabditis elegans) (UniProt Q20435).
T9 sequence: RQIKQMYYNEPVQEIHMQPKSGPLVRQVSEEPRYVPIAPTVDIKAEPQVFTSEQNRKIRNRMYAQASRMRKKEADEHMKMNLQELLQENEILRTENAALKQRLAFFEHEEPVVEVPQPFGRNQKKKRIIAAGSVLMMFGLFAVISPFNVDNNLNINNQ

Series [12] concerns the target T10, nhr-142 (F44E7.8) (Caenorhabditis elegans) (UniProt J7SF93).
T10 sequence: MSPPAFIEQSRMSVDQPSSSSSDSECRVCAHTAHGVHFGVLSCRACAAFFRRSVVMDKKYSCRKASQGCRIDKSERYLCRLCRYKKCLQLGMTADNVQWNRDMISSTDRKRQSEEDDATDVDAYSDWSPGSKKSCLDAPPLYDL

In series [13] the target is T11, nhr-42 (C33G8.6) (Caenorhabditis elegans) (UniProt O76828).
T11 sequence: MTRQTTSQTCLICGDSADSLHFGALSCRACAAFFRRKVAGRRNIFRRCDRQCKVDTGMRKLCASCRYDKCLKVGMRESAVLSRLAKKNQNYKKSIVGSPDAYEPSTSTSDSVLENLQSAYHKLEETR

Sequence of nhr-34 (F58G6.5) (Caenorhabditis elegans) (Q21006 99-268): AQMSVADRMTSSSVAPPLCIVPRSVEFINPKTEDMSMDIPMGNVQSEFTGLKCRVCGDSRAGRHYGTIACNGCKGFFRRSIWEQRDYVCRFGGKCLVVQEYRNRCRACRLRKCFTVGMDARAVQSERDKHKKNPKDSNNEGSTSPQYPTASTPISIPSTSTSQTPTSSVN
Sequence of atf-7 (C07G2.2) (Caenorhabditis elegans) (Q86MD3 339-508): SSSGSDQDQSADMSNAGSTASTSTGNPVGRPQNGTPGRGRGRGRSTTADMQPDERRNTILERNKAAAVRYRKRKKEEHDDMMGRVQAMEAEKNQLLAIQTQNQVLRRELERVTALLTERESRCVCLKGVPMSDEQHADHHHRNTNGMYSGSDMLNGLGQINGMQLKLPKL

With “CAAGTGCA (double strand) [8-mer CAAGTGCA]”, the binding signal (PBM E-score (-0.5 to 0.5)) in series [1] was 0.493. In the case of “AGGGATCA (double strand) [8-mer AGGGATCA]”, the binding signal (PBM E-score (-0.5 to 0.5)) in [2] turned out to be 0.479.

On to “ACAGATCA (double strand) [8-mer ACAGATCA]”, for which the binding signal (PBM E-score (-0.5 to 0.5)) in [3] came to 0.456. In [4], “AATTGGTC (double strand) [8-mer AATTGGTC]” showed a binding signal (PBM E-score (-0.5 to 0.5)) of 0.484. In turn, “AGATCAAA (double strand) [8-mer AGATCAAA]” registered a binding signal (PBM E-score (-0.5 to 0.5)) in series [5] of 0.473. Regarding “GACCAAAA (double strand) [8-mer GACCAAAA]”, the binding signal (PBM E-score (-0.5 to 0.5)) in series [4] was determined as 0.476. Consider “AATGACGT (double strand) [8-mer AATGACGT]”, for which the binding signal (PBM E-score (-0.5 to 0.5)) in [6] amounted to 0.459; in series [7] it was 0.497.

As to “TGATATCA (double strand) [8-mer TGATATCA]”, the binding signal (PBM E-score (-0.5 to 0.5)) came to 0.483 in series [8], 0.474 in [6] and 0.493 in series [9]. Turning to “GAGACCAA (double strand) [8-mer GAGACCAA]”, the binding signal (PBM E-score (-0.5 to 0.5)) in series [10] was 0.475. “CTGATCAA (double strand) [8-mer CTGATCAA]” displayed a binding signal (PBM E-score (-0.5 to 0.5)) in series [4] of 0.481. For the sequence “ATAGATCA (double strand) [8-mer ATAGATCA]”, the binding signal (PBM E-score (-0.5 to 0.5)) in series [3] was determined as 0.466. With “AATTGATC (double strand) [8-mer AATTGATC]”, the binding signal (PBM E-score (-0.5 to 0.5)) in series [4] came out at 0.477. “TAAGTACA (double strand) [8-mer TAAGTACA]” yielded a binding signal (PBM E-score (-0.5 to 0.5)) in series [1] of 0.492.

Turning to “AGGTCAAC (double strand) [8-mer AGGTCAAC]”, the binding signal (PBM E-score (-0.5 to 0.5)) in series [3] came out at 0.465. “GAGTTCAA (double strand) [8-mer GAGTTCAA]” gave a binding signal (PBM E-score (-0.5 to 0.5)) in [10] of 0.471. As to “CGTCATCC (double strand) [8-mer CGTCATCC]”, the binding signal (PBM E-score (-0.5 to 0.5)) in series [6] was 0.487.

In series [4], “AGACCAAT (double strand) [8-mer AGACCAAT]” registered a binding signal (PBM E-score (-0.5 to 0.5)) of 0.486. As to “AAAGTGCA (double strand) [8-mer AAAGTGCA]”, in series [1], the binding signal (PBM E-score (-0.5 to 0.5)) worked out at 0.498.

Consider “GAAGATCA (double strand) [8-mer GAAGATCA]”, for which the binding signal (PBM E-score (-0.5 to 0.5)) in series [5] and in series [10] was 0.466 in each case.

Regarding “CAAGATCA (double strand) [8-mer CAAGATCA]”, the binding signal (PBM E-score (-0.5 to 0.5)) in [5] was 0.463; in series [10], 0.474. On to “AAGTACAA (double strand) [8-mer AAGTACAA]”, for which, in series [1], the binding signal (PBM E-score (-0.5 to 0.5)) was found to be 0.493. Turning to “TAGATCAA (double strand) [8-mer TAGATCAA]”, the binding signal (PBM E-score (-0.5 to 0.5)) in series [5] came out at 0.465. For the sequence “CTGACGTA (double strand) [8-mer CTGACGTA]”, the binding signal (PBM E-score (-0.5 to 0.5)) in series [6] came out at 0.455; in [11], 0.474.

“AGATCAAG (double strand) [8-mer AGATCAAG]” gave a binding signal (PBM E-score (-0.5 to 0.5)) in series [5] of 0.466. In [3], “AAGATCAC (double strand) [8-mer AAGATCAC]” came in with a binding signal (PBM E-score (-0.5 to 0.5)) of 0.471. As to “GAGATCAA (double strand) [8-mer GAGATCAA]”, the figures for the binding signal (PBM E-score (-0.5 to 0.5)) in series [5], in [3] and in [10] were 0.495, 0.46 and 0.491, respectively. On to “GAGTCACA (double strand) [8-mer GAGTCACA]”, for which the binding signal (PBM E-score (-0.5 to 0.5)) in [12] was 0.485. On to “TTGATCAA (double strand) [8-mer TTGATCAA]”, for which the binding signal (PBM E-score (-0.5 to 0.5)) in [4] came out at 0.493; in series [10] it was 0.481. Regarding “CGAGATCA (double strand) [8-mer CGAGATCA]”, the binding signal (PBM E-score (-0.5 to 0.5)) stood at 0.46 in series [5] and 0.472 in series [10]. In turn, “TGATCAAA (double strand) [8-mer TGATCAAA]” displayed a binding signal (PBM E-score (-0.5 to 0.5)) in series [4] of 0.483. For the sequence “AAGTGCAG (double strand) [8-mer AAGTGCAG]”, in series [1], the binding signal (PBM E-score (-0.5 to 0.5)) worked out at 0.492.

With “AAGTACAT (double strand) [8-mer AAGTACAT]”, the binding signal (PBM E-score (-0.5 to 0.5)) in series [1] was found to be 0.495. As to “TAGACCAA (double strand) [8-mer TAGACCAA]”, in [4], the binding signal (PBM E-score (-0.5 to 0.5)) was 0.479. In series [1], “AAGTGCAA (double strand) [8-mer AAGTGCAA]” gave a binding signal (PBM E-score (-0.5 to 0.5)) of 0.496. As to “AAGATCAG (double strand) [8-mer AAGATCAG]”, the binding signal (PBM E-score (-0.5 to 0.5)) in series [3] is 0.466; in series [10], 0.47. “ACACTACG (double strand) [8-mer ACACTACG]”: the binding signal (PBM E-score (-0.5 to 0.5)) in [13] is 0.493.

Regarding “AGATCAAT (double strand) [8-mer AGATCAAT]”, the values for the binding signal (PBM E-score (-0.5 to 0.5)) in series [5], in series [3] and in series [10] were 0.49, 0.473 and 0.486, respectively. Regarding “TCTGATCA (double strand) [8-mer TCTGATCA]”, the binding signal (PBM E-score (-0.5 to 0.5)) in series [4] was 0.482. For “TAAGATCA (double strand) [8-mer TAAGATCA]”, the results for the binding signal (PBM E-score (-0.5 to 0.5)) in series [5] and in series [3] were 0.474 and 0.477, respectively.

For “CAGACCAA (double strand) [8-mer CAGACCAA]”, the binding signal (PBM E-score (-0.5 to 0.5)) in series [4] is 0.479.

For the sequence “ATGATCTC (double strand) [8-mer ATGATCTC]”, the binding signal (PBM E-score (-0.5 to 0.5)) in series [5] worked out at 0.46. “AAGATCAT (double strand) [8-mer AAGATCAT]” displayed a binding signal (PBM E-score (-0.5 to 0.5)) in series [5] of 0.476.

On to “AGATCAAC (double strand) [8-mer AGATCAAC]”, for which the figures for the binding signal (PBM E-score (-0.5 to 0.5)) in series [5], in series [3] and in series [10] were 0.483, 0.467 and 0.478, respectively.

Regarding “GTCATAAA (double strand) [8-mer GTCATAAA]”, the binding signal (PBM E-score (-0.5 to 0.5)) in series [12] came out at 0.484. The same measure, in the same setting: to “CAGTCACA (double strand) [8-mer CAGTCACA]” belongs 0.483. In series [1], “AAGTGCAT (double strand) [8-mer AAGTGCAT]” gave a binding signal (PBM E-score (-0.5 to 0.5)) of 0.495.

In series [10], “GGAGATCA (double strand) [8-mer GGAGATCA]” registered a binding signal (PBM E-score (-0.5 to 0.5)) of 0.473. Regarding “ACGTCAGC (double strand) [8-mer ACGTCAGC]”, the values for the binding signal (PBM E-score (-0.5 to 0.5)) in series [6] and in series [11] were 0.491 and 0.469, respectively.

In [13], “GACTACGC (double strand) [8-mer GACTACGC]” registered a binding signal (PBM E-score (-0.5 to 0.5)) of 0.484. Consider “CGTCAGCA (double strand) [8-mer CGTCAGCA]”, for which the binding signal (PBM E-score (-0.5 to 0.5)) in [6] worked out at 0.457. Consider “TAAGTGCA (double strand) [8-mer TAAGTGCA]”, for which the binding signal (PBM E-score (-0.5 to 0.5)) in [1] was 0.496. “CGTCAGCC (double strand) [8-mer CGTCAGCC]”: the binding signal (PBM E-score (-0.5 to 0.5)) in series [6] came out at 0.491.

Source of the values: article PMC4434323.
